Source: the supplement of paper PMC9170038

Key:
[1] = system: MS2 coat protein; experiment: apparent KD of MS2 coat protein, switch OFF state (with FMN for OFF switches, without FMN for ON switches); designed switch direction (-1 OFF switch, 1 ON switch): -1; higher = weaker reporter binding; conditions: FMN input: 0 or 200 uM; Eterna round: R93 (includes R88 designs)
In short: (§1)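 In 100 mM Tris-HCl pH 7.5 with 80 mM KCl and 4 mM MgCl2, and without or with constant ligand, SNAP-549-labelled MS2 coat protein was titrated in twofold steps from 0.7 or 1.5 nM to 3 µM. Per-step times went from 0.8–1.5 h down to 10–20 min. The RNA switches were transcribed on-chip from Illumina sequencing clusters, and apparent KD is the per-design median of normalised cluster binding-curve fits.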

[2] = system: MS2 coat protein; experiment: apparent KD of MS2 coat protein, switch ON state; designed switch direction (-1 OFF switch, 1 ON switch): -1; higher = weaker reporter binding; conditions: FMN input: 0 or 200 uM; Eterna round: R93 (includes R88 designs)
In short: as §1

Row | Sequence | apparent KD of MS2 coat protein [1] [nM] | apparent KD of MS2 coat protein [2] [nM]
1 | UAAAACCUAGGAUAUACAUGAGGAUCACCCAUGUGGCACUCCGCAGGCAUUGUUCCCAGUAGAAGGAGGACACG [Inan] | 23.9 | 20.6
2 | AGAUAGUCAGGAUAUACGAACAAGAAAAAAGACGAGAACGGACAUGAGGAUCACCCAUGUAGAAGGGACAAGAA [Diamond 12] | 37 | 63
3 | AAGAACGAAGGAUAUACAUGAGGAUCACCCAUGUAAAAGAAAGAAAGGGAAAAGAAAAGUAGAAGGUCGAAGAA [Sekhemkheperre Osorkon I] | 31.2 | 28.3
4 | AAAAGUGGAGGAUAUACAUGAGGAUCACCCAUGUGUAAAAAUAAAUACACAAAAGAAAGUAGAAGGCCACAAAG [Mat - Exclusion 3 - Mayanna mod - D117] | 128 | 32.2
5 | AGUCGGCGAGGAUAUACAUGAGGAUCACCCAUGUGAGAGAAUAAAGUGAGUUAGACAAGUAGAAGGCGCUGACA [JL Lego Mod 10] | 226 | 40.5
6 | AGGUUGUCAGGAUAUGCGUGAAGAAUAAAACAAAUAACAACGCAGAAGGGACAUGAGGAUCACCCAUGUUAAGA [May 47] | 48.3 | 39.8
7 | UAAAGACAUGAGGAUCACCCAUGUGAGGAUAUUGGUGACUAUAAAAAAAAAUAGUCACCGAGAAGGCAUAGGAA [JR_Exc001_Sub302] | 42.4 | 31
8 | AAAAAGUCAGGAUAUACAGAUAAAAAAACGAAAAAAAAUCUGUAGAAGGGACAUGAGGAUCACCCAUGUAAAAA [Ex 4 May 1] | 40.1 | 61.8
9 | AAGAAACAUGAGGAUCACCCAUGUGAGGAUAUUCAAGAAAGAAAGAAAGAAAGAAGAAGAAGAAGGCACAAAGG [Lucius Seius Strabo] | 32 | 29
10 | UUAAUAGUAGGAUAUACAUGAGGAUCACCCAUGUAGCAACUACACAAAGGAACCUGAUGUAGAAGGACUUCCAG [Attionuson] | 13.6 | 12.4
11 | GAAAAGAGAGGAUAUACUUUGGGAAAAGAAAAGAUGAUGUUACAUGAGGAUCACCCAUGUAGAAGGCUCAAAAA [Mat - Exclusion 2 - Mod - D156] | 44.6 | 27.1
12 | AAACCACAUGAGGAUCACCCAUGUGAGGAUAUGAACGAAAAUAAAUAAAAAUAAAAGUUCAGAAGGCACAAAAA [66%, Wbt, 12] | 23.6 | 21.3
13 | AAAAAACAUGAGGAUCACCCAUGUGAGGAUAUGGAAAAAUAAGGACAGUAAAGAUAAACCAGAAGGCACAAAUA [JR_Exc001_Sub1101] | 24.1 | 26.4
14 | AAGUCGUUAGGAUAUAUAUGGAUAUACAUUUAUGUAGAACUACAUGAGGAUCACCCAUGUAGAAGGAACGAAUA [AJ 56] | 27.9 | 24.3
15 | AACAGUACAGGAUAUACAUGAGGAUCACCCAUGUGGGAAAAAAGAUCGAGAGAUCCAUGUAGAAGGGUACUGGA [JL In the Red 06] | 25.6 | 85.5
16 | CUCAAGUAAGGAUAUCCAAGAAAAGAAGAGAAAGAAAAGAAGGAGAAGGUACAUGAGGAUCACCCAUGUAAGAA [EteRNA is fun!] | 23.7 | 28.7
17 | ACCGAUCGAGGAUAUACAUGAGGAUCACCCAUGUAACCCAGAAGAAAGGCCUCAGGAUGUAGAAGGCGACGCAA [JR_Exc003_Sub406] | 17.7 | 16.3

Row | Sequence | apparent KD of MS2 coat protein [1] [nM] | apparent KD of MS2 coat protein [2] [nM]
18 | AAAAAGGGAGGAUAUACAUGAGGAUCACCCAUGUAUCAGACGAAAAAGAGUCUGAAAAGUAGAAGGCCCAAAAA [65%, Moding Exclusion3-cac2, 6] | 20.8 | 15.5
19 | AACUGGUGAGGAUAUCUGGAUAGGAAAAAGAAAACCUAUCCAGAGAAGGCACAUGAGGAUCACCCAUGUAAAAA [JL cataway mod 9] | 51.9 | 56
20 | UAAAACUUAGGAUAUACAUGAGGAUCACCCAUGUCAAGACAAGGAAGGUCCUAAGCCGGUAGAAGGAAGAAAAU [Bexeora] | 25.4 | 29.6
21 | GAAAGGGCAGGAUAUGCGGAGAGAGAGAGAGAGAGAGAGAGACAUGAGGAUCACCCAUGUAGAAGGGCCGAAAG [salish99-ex2-08] | 38.6 | 36.9
22 | GGAAAACAUGAGGAUCACCCAUGUGAGGAUAUCGAUGUCCAAAAAAGAGUGCGGGACUCGAGAAGGCACUUGGA [salish99-ex1-43] | 32.5 | 49.3
23 | CUCUAGUCAGGAUAUCCAAGAAAAGAAGAGAAAGAAAAGAAGGAGAAGGGACAUGAGGAUCACCCAUGUAAGAA [EteRNA is fun!] | 46.4 | 75.9
24 | AAAAGGUGAGGAUAUAGGAAAAUAAAAUAAAAUAAAAUAAACUAGAAGGCACAUGAGGAUCACCCAUGUAAUAA [LROPPY Exclusion 4 - v03_deltaG=3.54 break up the As] | 17 | 25.1
25 | AGGAAACAUGAGGAUCACCCAUGUCAGGAUAUUGAAAAGAAAAGAAAAGAAAGAAGAACAAGAAGGGACAAGAA [Mekh] | 20.6 | 27.2
26 | AAAAAACAUGAGGAUCACCCAUGUGAGGAUAUGCAAAACCCAUAUAAAAAGGGAAAAAGCAGAAGGCGCAAAAA [Starry Exclusion 1.4 (wbt round 1 mod)] | 24.2 | 26.5
27 | AGGAAACAUGAGGAUCACCCAUGUAAGGAUAUGAACGAAAUAAAAUAAAAAUAAAAGUUCAGAAGGUACAAAAA [Mat - Exclusion 1 - Eli mod - D8] | 39.3 | 31.8
28 | AAAAAACAUGAGGAUCACCCAUGUGAGGAUAUGCGAAAAAAAAAAUAAAAAAAAAAAAGUAGAAGGCACACCAA [Mat - Exclusion 1 - Eli mod - D55] | 44.1 | 41.9
29 | AAGAGUAGAGGAUAUACGAAAAAAGAGUCGAAAGACUCGGGACAUGAGGAUCACCCAUGUAGAAGGCUACUCAA [Hyphema Seclusion Mod 62% 5] | 110 | 22
30 | AAAAAGGCAGGAUAUACGAGUCAAAGAAAAGACAAAAGGAAACAUGAGGAUCACCCAUGUAGAAGGGCCAAAAA [Fiskers exclusion D2 62% 6] | 16.7 | 28.2
31 | AAGAAUGGAGGAUAUACAUAAAAGAAAGAAAAGAAAAGAAAACAUGAGGAUCACCCAUGUAGAAGGCCAUAGAA [EteRNA is fun!] | 15.3 | 24.6
32 | CUCAUGUCAGGAUAUAGCCACAUGAGGAUCACCCAUGUGGACUAGAAGGGACAUGAGGAUCACCCAUGUAUGAA | 11.3 | 11
33 | AACUGACAUGAGGAUCACCCAUGUCAGGAUAUGACUUCGAAAAAUAAAAUAAACGAUGUCAGAAGGGACAUGGG [Design 68: Sub-opt O] | 19 | 21.2
34 | GCUGGGCAAGGAUAUACAUGAGGAUCACCCAUGUGAGAGAAAAAAGUGAGAAAGAAAAGUAGAAGGUGCUUAGG [salish99-ex3-119] | 77.9 | 45.8
